Molecular target: the molecule itself
Experiment: self-assembly into 2D arrays, negative-stain EM and AFM
Procedure: Samples were applied to glow-discharged EM grids and stained with either uranyl acetate (UA), uranyl formate (UF) or NanoW™ (Nanoprobes, Inc, Yaphank, N.Y., USA) for screening or analysis. Data was collected using a Tecnai T12 equipped with a Gatan Orius CCD. CTF estimation was performed using GCTF (10), and all other image processing steps were completed via Relion™ 2.1 (11). For the analysis in FIG. 2G, 421 2D array segments were picked manually from 42 micrographs, and the resulting 2D class average used as a template for Relion™ autopicking, which yielded 5,823 2D array segments. After subsequent 2D classification and alignment, the dominant 2D class consisted of 1,893 array segments (each approximately 20 nm diameter).

B1: 2D-HP (designed binder)
chain: MGSRTMYIRALEQSLREQEELAKRLKELLRELERLQREGSSDRDVKVLLWEIEALVEEIEKLARLQKELVEKLKRQGSGNMYIRALEQSLREQEELAKRLKELLRELERLQREGSSDRDVKVLLWEIEALVEEIEKLARLQKELVEKLKRQD
notes: Expressed from pET28b(+) between NdeI and XhoI; also called design 2D-HP; designed 2D assembly 2D-HP
**Q.** Does B1 bind?
**A.** binds
